Assay results as given in the DeepSol protein solubility set.

assay: soluble on expression in E. coli; label from the status in PepcDB or PDB records

Sequence	soluble on expression in E. coli
MGSDKIHHHHHHMVAMQSYPYVITVSSEKGGVGKTTLATNLAIYLKALDENLPVSIFSFDNHFTVDRMFEIRGQRTTGTVADLLLETPGRDLIHTGQYGVGYIPSSPNLSDLKGTVKTPMMLARLLALSRIPGVVVIDTRPDLDILTQNALFAADRAIIPVKDMPSLENCRNIFALFEQRGLDRKSLSLIPCLVDERIKFDGPFSDQKTLLKAYAINRGYRCFETYISKSPKVESLNTNPDGKIYPILTHAKWTEVHGQFAQLAQTIITEFRATAEPRAFLFHQWLQSEEVRKKEAFFARLSGIKSECLLCGRPVSGKDSDRVSFYFEVSDGSAAGFFEEECFFRLLMTNVYNLDINLADDDPTLQIMRDAARESAFVFRPVTNGSGTTVDFHRFGLDGVHLLKKAYPLREFEGGMLTREKSRLFSLLSETFGNRLDASPDSFLLVHPVHQEKPEAILQEECYRGFARLRQRIAQQVLPPN	not soluble
SNAMTKPMIQIALDQTNLTDAVAVASNVASYVDVIEVGTILAFAEGMKAVSTLRHNHPNHILVCDMKTTDGGAILSRMAFEAGADWITVSAAAHIATIAACKKVADELNGEIQIEIYGNWTMQDAKAWVDLGITQAIYHRSRDAELAGIGWTTDDLDKMRQLSALGIELSITGGIVPEDIYLFEGIKTKTFIAGRALAGAEGQQTAAALREQIDRFWP	soluble
MSPEKYLQDWQTSQTIAESISPLIGKLYRQKGIEVVLFGKTLINATTIDILKTHRVARRYTGSPLSLEHTMPIIQALCEMSISSCRVDVGQLATKYWNEHEDTAALNDFLQTALQGARDADSS	not soluble
MAAGSGVVPPPLGAGLCTVKVEEDSPGNQESSGSGDWQNPETSRKQFRQLRYQEVAGPEEALSRLWELCRRWLRPELLSKEQIMELLVLEQFLTILPQELQAYVRDHSPESGEEAAALARTLQRALDRASPQVRLEWTLHGTREMA	soluble
MSLSQLREIQQQFMDYLLASAAQTPIPETIEKPFSDKVAEQGGVGRDIRMQIYANAYRIRLTEVLDTDHEILGLYLGDDLFARMANGYIAHQPSRFTSLRQFADALPGYLASDAFFSQYPIISDIARFERRLLNAFDAKDEQRASFAALQSLPADAWPYCQLRFHPSVQLFECASNAVETWQALKHQQVPPAPDYQGKHAWLLWRGENRLTEFISLAEYQLALIQGFIHGANIAEQCELMLNFFTPEEAMQQLLQALQAWFQLGLILSVQPNEGHHHHHH	not soluble
MAHHHHHHMFYLFDEKAMSTNIKVKSVKRLVYNRHIKGDEAVLSLDLSYDMSKAFNWNLKQLFLYVLVTYETPEKVKNEVIIQDYIITNKNVAKRTYKNFITKYSLKDYNNGLRNNNINLQVCYKYMPIVGLSRSYEGTKISYKLPAEYFDNLPSNYPLYYPDK	not soluble
MSLGKFTAVILDFETTGLSPGYGDRAIEIGAVLVRNNRIVDRFQSLMNPGKRVSGFIEEYTGITNEMLAKAPPAEQVMERFASFIAGHNLVAHNASFDRRFLDAELSRIGRRRTGDFACSMLAARRIYTNAPNHRLETLVSHLSLQTDGVFHRALADAEMTAQLWTAMIGELKETYRLRQVTFELMHSLGGVAKKAVPAYLERVAAGREGHHHHHH	not soluble
KKITRPIEKLSDTVSQMAKGQYDTRAKIKTDGEVGDLVNSFNIMADRLEKNIEELEDTARRQEDFTAAFAHELKTPLTSIIGYSDMMRSMDLEKEEISEYSNYIFLQGKRLEKLSFTLMDLISLDKQKIEFNRISTEKMFNDIEKTVEQMLREHNIRFKMSVEPAVIVGNEDLLKSLFMNIIDNGRKAISGQGIIALKAIKTEKGYTVFIQDNGCGMEKSEIKKITEAFYMIDKSRARKEGGAGIGMSLCKKIVSIHNAKWSVRSKPGKGTIISIVFQEGQN	not soluble
MGSDKIHHHHHHMLTLANVALLSQLALQQPGETDKKPEDCSFEQIEFTINFAVGRLNHCEKTGDNQYKLFLEPEREKINPSPWYAFAVKNKTETSQTIDITLVASEGVSRYKPKRSEGDDIWHAIPFSEGDGTLQFELTLSGQTKEYIAGQEIIDNVHYIEWLSSLIKEPQQTEVISLGVSSEGRNLAALEHRVESSDKWIILIGRQHPPEVTGALALLHFGELLFSDEPYVVKFRQKYNILLVPNMNPDGVYHGNWRLTAAGIDMNRDWKNLTLPETQAMANYLKKLVKDGGKIEFAIDFHSTRKNVFYTMPEDYEPRSGVPLRNPQRVYNWIEEIEELVGSVELDYQPGAHPESGVFKQFIADEFAAHAVTYEVSDNEERNNIKKVAEAALISLINRLD	not soluble
MKKVLLFAVVFSCSMWANAQRVTWATEAGLSAIQRTGYGECWRPSTRLGISADYNVNNMFSMKSGLYYTFRGYSVNNGGTYSNGDATWIENVSQTRHFLQVPILAKFSIHSNNSTKFFFEIGSYIGYCIKNHIDSNPYYLTMPSSGWVEGYPGVGESAEGGSNQFLYQHARNFDWGMTSAVGIENRRWTVKLQYEMSLGKESKNDNIGVNYNSLTLSVGYKLNVKQ	not soluble
MGSDKIHHHHHHMKLDPTSPSLNIMLANPRGFCAGVDRAISIVERALELFSPPIYVRHEVVHNRYVVQNLKDRGAVFVEELDQVPDNNIVIFSAHGVSQAVRQEAKARGLRVFDATCPLVTKVHLQVTRASRKGIECILIGHEGHPEVEGTMGQYDNPNGGVYLIESPADVDALEVRDPNNLCFVTQTTLSVDDTLDIIAALQKRFPSIEGPRKDDICYATQNRQDAVRNLSADVDLLIVVGSKNSSNSNRLRELALKTGTQSYLVDTADDVESSWFDNVSRVAVTAGASAPEVLVQQVVQAIAKLAPSVVTEVEGRKEDTVFAVPAELR	not soluble
MKNKLFASALCAAALFTTNAMAKDQELYFYNWSEYIPSEVLEDFTKETGIKVIYSTYESNESMYAKLKTQGAGYDLVVPSTYFVSKMRKEGMLQEIDHSKLSHFKDLDPNYLNKPFDPGNKFSIPYIWGATGIGINTDMLDKKSLKNWGDLWDAKWAGQLMLMDDAREVFHIALSKLGYSPNTTNPKEIKAAYRELKKLMPNVLVFNSDFPANPYLAGEVSLGMLWNGSAYMARQEGAPIQIIWPEKGTIFWMDSISIPAGAKNIEAAHKMIDFLLRPENAAKIALEIGYPTPVKTAHDLLPKEFANDPSIYPPQSVIDNGEWQDEVGEASVLYDEYFQKLKVND	soluble
MADVADPEVESRPQRFPKNIMITGANRGIGFGLVKHFLEYDGIELLIATCRNPEKADELNALKNDRRLHVIALNVDDDESIKKVFDEVSSLVSSNGLNMLINNAGILLPYEVDGPKICRKTMMKQLETNSVSVAILTQIFLPLIKTAASAAEGDEASIDRASIINISSTMASIEMNNGCFDGPMTAYRMSKSALNAFARQSFMELSKYHILVTSFCPGWVRTDMGGDNADLDVNESTKTLSANILRLDNRNNGLYFDRFLHPIPN	not soluble
MDWFGVDAGTLREGDRADFVVIDPNCLNSDVDAYHEETVPFYGGLSRMVNRNDDAVVATAVNGTVVFGKGEFRDGYGLEHHHHHH	not soluble
MSLEDSEQIQILQHLISINSVNDHEADVAAYIQQLFADHGITSQVIPYADGRANIIAEIGDTTSDQVFALAGHLDTVATGDVADWKFDPFSAHIVDNQLYGRGAADMKSGLAAMVITLINLADQQTPLTGRLRFIGTVGEENGAMGSRMLTEKGVADDLTAMVIGEPTGGNLVYAHNGSLNYHVYSRGVGAHSSMPEKGINAITNLIKYVTAEATAFDDAPVSPELGPLVHSVTVFNGGEQVNSIPAKAELQGNIRPIPEFDNTAVIHRLHETVDRLNQEPGVDLALHVDYSFKPIISAKDSPLVQTTKAIADQEFGHAIDLQVIHGATDASEFTKSSHDFPVIVYGAGKWDAAHALNESVDLDEFRHVQHVYQQLVEKFLSEGHHHHHH	soluble
MWLKVGGLLRGTGGQLGQTVGWPCGALGPGPHRWGPCGGSWAQKFYQDGPGRGLGEEDIRRAREARPRKTPRPQLSDRSRERKVPASRISRLANFGGLAVGLGLGVLAEMAKKSMPGGRLQSEGGSGLDSSPFLSEANAERIVQTLCTVRGAALKVGQMLSIQDNSFISPQLQHIFERVRQSADFMPRWQMLRVLEEELGRDWQAKVASLEEVPFAAASIGQVHQGLLRDGTEVAVKIQYPGIAQSIQSDVQNLLAVLKMSAALPAGLFAEQSLQALQQELAWECDYRREAACAQNFRQLLANDPFFRVPAVVKELCTTRVLGMELAGGVPLDQCQGLSQDLRNQICFQLLTLCLRELFEFRFMQTDPNWANFLYDASSHQVTLLDFGASREFGTEFTDHYIEVVKAAADGDRDCVLQKSRDLKFLTGFETKAFSDAHVEAVMILGEPFATQGPYDFGSGETARRIQDLIPVLLRHRLCPPPEETYALHRKLAGAFLACAHLRAHIACRDLFQDTYHRYWASRQPDAATAGSLPTKGDSWVDPS	not soluble
MAHHHHHHMRHCHMSFAYCFCPFSAHRSASSQGYTRLMRRLSGSTCLLTGVTRAGRWLPTTAPCLSLCSFFLTASRRKQSTSGIGGDVRDIEETHPDFQPRLVSADLAEDEIAMVKKDIDDTIKSEDVVTFIKGLPEAPMCAYSKRMIDVLEALGLEYTSFDVLAHPVVRSYVKEVSEWPTIPQLFIKAEFVGGLDIVTKMLESGDLKKMLRDKGITCRDL	not soluble
MKLGFVGAGRVGSTSAFTCLLNLDVDEIALVDIAEDLAVGEAMDLAHAAAGIDKYPKIVGGADYSLLKGSEIIVVTAGLARKPGMTRLDLAHKNAGIIKDIAKKIVENAPESKILVVTNPMDVMTYIMWKESGKPRNEVFGMGNQLDSQRLKERLYNAGARNIRRAWIIGEHGDSMFVAKSLADFDGEVDWEAVENDVRFVAAEVIKRKGATIFGPAVAIYRMVKAVVEDTGEIIPTSMILQGEYGIENVAVGVPAKLGKNGAEVADIKLSDEEIEKLRNSAKILRERLEELGY	soluble
MKQDVILVLDCGATNVRAIAVDRQGKIVARASTANASDIAAENSAWHQWSLDAILQRFADCCRSLSSALSECVVRGITVTTFGVDGALVDAQGKLLYPVISWKCPRTAAVMETIERFISPRQLQTLSGVGAFSFNTLYKLVWLKENHPRLLEQAHCWLFISSLINHRLTGEFTTDITMAGTSQLLDIHQRDFSPEILQATGLARRLFPRIVEAGAPIGTLQTDAARLLGLPAGVPVISAGHDTQFALFGAGAQQGEPVLSSGTWEILMVRSGQVDTSLLSQYPGSTCELDSQSGLYNPGMQWLASGVLEWVRKLLWTPETPWQTLIDEARAIPAGAEGVRMQCDLLACQNAGWQGVTLNTTRGHFYRAALEGLTAQLQRNLRTLEKIGHFNATELLLVGGGSRNALWNQIKANQLDIPIKVLDDAETTVAGAAMFGWYGVGEFSSPEQARAQVNYQYRYFWPQTEPEIIEGV	not soluble
DPATVFRLVAAEALTLTGADGTLVAVPADPDASAAEELVIVEVAGAVPAEVEASAIPVQDNAIGQAFRDRAPRRLDVLDGPGLGGPALVLPLRATDTVAGVLVAVQGSGARPFTAEQLEMMTGFADQAAVAWQLASSQRRMSELDILAD	soluble
YALTEGEDYLVLDKPIPQEQPGKIEVLEFFGYFCVHCHHFDPLLLKLGKALPSDTYLRTEHVVWRPEMLGLARMAAAVKLSGLKYQANSAVFKAVYEQKIRLENRAVAGKWALSQKGFDGKKLMRAYDSPEAAAVALKMQKLTEQYGIDSTPTVIVGGKYRVIFNNGFDGGVHTIKELVAK	not soluble
MRRLPPWMLGGASTGEAAARNGSQPEAPKTKAEKRPKRVQKTKEKDLNLKSDEPKRVPRKIREEAKRSPEVIQSVTVPEDDDLTVDDLLSFANEYVQRDEEGTRKERERSLSVSETTLVLDETNMTTSSQGGTKDSTAEDMLQLLMGPFYKKR	soluble
